Test results published in the nanobody polyreactivity screen of Harvey et al. (2022).

Assay: yeast display, Sf9 membrane polyspecificity reagent, FACS + sequencing; frameworks hold sequencing errors
Summary of the method: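 Sorting gates, low and high (top ~1%), were placed on anti-HA fluorescence to track expression and on streptavidin fluorescence to track reagent binding. A clone's polyreactivity label is taken from the gate it came out of. The reagent was 10% biotinylated, detergent-solubilized Sf9 membrane, applied for 1 hour at 4 °C to galactose-induced yeast display cells.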

Sequence | polyreactivity (PSR sort gate)
QVQLVESGGGLVQAGGSLRLSCAASGYIFWWNAMGWYRQAPGKERELVAGISWSGSPTYYADSVKGRFTITRDNAKNTVYLQMNSLKPEDTAVYYCNAAAITLYDYDYWGQGTQVTVSS | low polyreactivity
QVQLVESGGGLVQAGGSLRLSCAASGLTFGPNAMGWYRQAPGKERELVAAITKSGGSTYYADSVKGRFTISRDNAKNTVYLQMNSLKPEDTAVFYCAARAGYKVFGYWGQGTQVTVSS | high polyreactivity
QVQLVESGGGLVQAGGSLRLSCAASGSTFVVNAMGWYRQAPGKERELVAAITQSGGSTFYADSVKGRFTISRDNAKNTVYLQMNSLKPEDTAVYYRGQGTQVTVSS | low polyreactivity
QVQLVESGGGLVQAGGSLRLSCAASGFIVHTNTMGWYIQAPGKERELVAAMSSGGRTNYADSVKGRFTISRDNAKNTVYLQMNSLKPEDTAVYYCAADWHSWRWGYYYWGQGTQVTVSS | low polyreactivity
QVQLVESGGGSVQAGGSLRLSCAASGFNFVYYAMGWYRQAPGKERELVAAITWSGGSTYADSVKGRFTISRDNAKNTVYLQMNSLKPEDTAVYYCAAEYDISSGYGFDFDYWGQGTQVTVSS | low polyreactivity
QGQLVESGGGLVQAGGSLRLSCAASGRIFTRYALGWYRQAPGNEREFVARSTGSGGRTYYADSVKGRFSISRDNAKNTVYLQMNSLKPEDTAVYYCNARRPSWHSYDYGYADYYWGQGTQVTVSS | high polyreactivity
QVQLVESGGGLVQAGGSLRLSCAASGSIFNRYAMGWYRQAPGKERELVASISWRTASTYYADSVKGRFTISRDNAKNTVYLQMNSLKPEDTAVYYCAAKILGRPGYYYWGQGTQVTVSS | high polyreactivity
QVQLVESGGGLVQAGGSLRLSCAASGRNFRRYTMGWYRQAPGKERELVATISSGGSTYADSVKGRFTISRDNAKNTVYLQMNSVKPEDSAVYYCAAQTWGSGYGNIGRRRHDYWGQGTQVTVSS | high polyreactivity
QVQLVESGGGLVQAGGTLRLSCAASGIIFGYYAMGCYRQAPGKERELVAAINSGGSTYYADSVKGRFTISRDNAKNTVYLQMNSLKPEDTAVYYCKAKLYSKYWGQGTQVTVSS | high polyreactivity
QVQLVESGGGLVQAGGSLRLSCAASGSNFASYSMGWYRQSPGKERELVAAITDSGGSTYYADSVKGRLTSSRENGKNTVYLQMNSLKPEDTAVYYCAAYGPYFSYHDYVYWGQGTQVTVSS | low polyreactivity
QVQLVESGGGLVQAGGSLRLSCAASGFTFDENAMGWYRQAPGINYSGASTYYADSVKGRFTISRDNAKNTVYLQMNSVKPEDTAVYYCAAEVVAQMNYCGQGTQVTVSS | low polyreactivity
QVQLVESGGGLVQAGGRLRLSCAASGSTYYNAMGWYRQAPGKERELVAAIRFRSGSTYYADSVKGRFTISRDNAKNTVYLQMNSLKPEDTAVYYCAAYCRRSYVDSYDIRFDYWGQGTQVTVSS | high polyreactivity
QVQLEESGGGLVQAGGSLRLSFAASGRTFWWYAMGWYRQAPGKERELVAAITWSGGSTYYADSVKGRFTISRDNAKNTVYLQMNSLKPEDTAVYYCAAYVHNKYDYWGQGTQVTVSS | low polyreactivity
QVQLVESGGGLVQAGGSLRLSCAASGLIFSGYAMGWYRQAPGKERELVAAISTRGGSTFYADSVKGRFTISRDNAKNTVYLQMNSLKPEDTAVYYCAADGAGGYYYWGQGTQVTVSS | high polyreactivity
QVQLVESGGGLVQAGGSLRLSCAASGSIFDGYAMGWYRQAPGKEREFVAAITKRTGRTYYADSVKGRFTISRDNAKNTVYLQMNSLKPEDTAVYSCAARKKSLTTLRYGYWGQGTQVTVSS | high polyreactivity
QVQLVESGGGLVQAGGSLRLSCAASGRTFADHTMGWYRQAPGKERELVARINSGSSTYYADSVKGRFTISRDNAKNTVYLQMNSLKPEDTAVYYCAARGSDYIRWYVGGRYGYWGQGTQVTVSS | low polyreactivity
QVQLVESGGGLVQAGGSLRLSCAASGYIFGNYAMGWYRQAPGKERELVAAISKSGVTTYYADSVKGRFTISRDNAKNTVYLQMNSLKPEDTAVYYCNARSWRPINARYNEYDYWGQGTQVTVSS | low polyreactivity
QVQLVESGGGLVQAGGSLRLSCAASGSIFRKYSMGWYRQAPGKERELVAGITGRGGRTYYADSVKGRFTISRDNAKNTVYLQMNSLKPDDTAVYYCAATVSPSYDYWGQGTQVTVSS | high polyreactivity
QVQLVESGGGLVQAGGSLRLSCAASGRIFLPYAMGWYRQAPGKERELVAVITGRGGSTYYADAVKGRFTISRDNAKNTVYLQMNSLQPEDTAVYYCAAAYYRGRGYYWGQGTQVSVSS | high polyreactivity
QVQLVESGGGLVQAGGSLRLSCAASGFIFYKYAMGWYRQAPGKERELVAAITWRGGRTNYADSVKGRFTISRDYAKNTVYLQMNSLKPEDTAVYYCAADPWSSSYYYSYEYWGQGTQVTVSS | high polyreactivity
QVQLVESGGGLVQAGGSLRLSCAASGRTFRYNAMGWYRQAPGKERELVARISRGGSTYADSVKGRFTISRDNAKNTVYLQMNSLKPEDTAVYYCAAYPTKHNQSEYYYWGQGTQVTVSS | low polyreactivity
QVQLVESGGGLVQAGGSLRLTCAASGRIFSYYAMGWYRPAPGKERELVAAISSSGGSTYYADSVKGRFTISRDNAKNTVYLQMNSLKPEDTAVYDCRVYTRGEYYSWGQGTQVTVSS | high polyreactivity
